In paper PMC6051418:

Molecular target: R28A-HD5 (human)
Assay: crystal structure

Substance R28A-HD5 (peptide) has a stoichiometry N of 2.
